Measurements published in article PMC4800742.

Target: T1, RanGAP1 (human, UniProt P46060 1-587)
T1 sequence: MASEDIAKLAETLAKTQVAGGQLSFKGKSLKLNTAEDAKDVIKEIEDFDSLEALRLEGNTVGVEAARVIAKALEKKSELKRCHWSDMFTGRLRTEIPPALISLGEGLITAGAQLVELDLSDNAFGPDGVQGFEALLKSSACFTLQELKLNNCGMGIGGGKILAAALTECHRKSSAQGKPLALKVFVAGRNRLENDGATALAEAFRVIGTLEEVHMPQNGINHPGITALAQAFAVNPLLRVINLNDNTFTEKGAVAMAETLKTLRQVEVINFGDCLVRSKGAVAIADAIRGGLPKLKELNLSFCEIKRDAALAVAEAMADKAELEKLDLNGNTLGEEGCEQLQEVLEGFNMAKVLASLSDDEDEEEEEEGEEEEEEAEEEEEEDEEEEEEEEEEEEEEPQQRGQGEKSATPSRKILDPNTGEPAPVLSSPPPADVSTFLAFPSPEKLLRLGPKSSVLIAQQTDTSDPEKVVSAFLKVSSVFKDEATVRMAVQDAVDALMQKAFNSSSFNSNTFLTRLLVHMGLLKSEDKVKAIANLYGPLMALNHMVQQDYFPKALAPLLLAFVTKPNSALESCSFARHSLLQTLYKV
Test: EMSA

B1: (G4C2)4 G-quadruplex (structured_RNA)
RNA: GGGGCCGGGGCCGGGGCCGGGGCC
  apparent K (half saturation): 162 nM
